Data taken from article PMC5586245, “2017 publication guidelines for structural modelling of small-angle scattering data from biomolecules in solution: an update” (Acta Crystallographica. Section D, Structural Biology, 2017).

Target: the molecule itself
Assay: SEC-SAXS; inline SEC (5 x 150 mm Superdex S200, 0.45 ml/min) with SAXS at the Australian Synchrotron SAXS/WAXS beamline, sheath-flow cell; 25 mM MOPS, 250 mM NaCl, 50 mM KCl, 2 mM TCEP, 0.1% NaN3 pH 7.5; 22 °C; mass from I(0), Porod volume and fit of crystal structures

B1: glucose isomerase (enzyme)
chain: not shown
notes: glucose isomerase (xylose isomerase), Streptomyces rubiginosus, UniProt P24300 residues 2-388; Tetramer; M from chemical composition 172912 Da for the tetramer; also called GI; GI (tetramer); source: bought: Hampton Research (HR7-100); stored in diluted form, repeated freeze-thaw cycles; no purification step before the SEC-SAXS column
stoichiometry N: 4
